Among the data in US20100310573A1 are Kd, koff and kon values, retold here.

As usually defined, the Kd is a measure of binding affinity in units of concentration. Broadly, the koff is the rate constant with which the complex falls apart. Usually kon stands for the rate constant with which the complex forms.

In this experiment the target is recombinant human CD4 (catalogue number: 514-CD/CF, manufactured by R&D Systems) (human) (UniProt P01730). The experiment is described as follows: SPR, Biacore T100; antibody captured on anti-mouse IgG chip, recombinant human CD4 flowed; 1:1 binding model.
Regarding “13B8.2 (Beckman Coulter), commercially available anti-human CD4 mouse antibody”, the Kd turned out to be 352 pM, the off-rate constant (koff) was 0.000156 s⁻¹ and the kon was determined as 444000 M⁻¹ s⁻¹.
The corresponding values for “Leu-3a (BD Biosciences), commercially available anti-human CD4 mouse antibody” are 117 pM, 0.000129 s⁻¹ and 1.1e+06 M⁻¹ s⁻¹.
On to “anti-CD4 mouse monoclonal antibody OKT4 (manufactured by BioLegend)”, for which the dissociation constant (Kd) is 2900 pM, the koff amounted to 0.00306 s⁻¹ and the on-rate (kon) turned out to be 1.05e+06 M⁻¹ s⁻¹.
